This note sets out measurements from patent publication US20150160214A1, “Quantitation of Cellular Adhesion Dynamics Across Immobilized Receptors Under Rheological Shear Flow” (Mayo Foundation for Medical Education and Research, priority 2013, published 2015).

Data set [1] has as its target T1, platelet GPIbα (Homo sapiens, UniProt P07359).
T1 construct: endogenous in cells; host or cells: platelets in citrated whole blood of normal healthy volunteer donors
Kind of data set: Platelet pause times on surface-captured A1 domain variants, parallel plate flow chamber (Table 4, Example 3). The format is cell-based. Further details: key to Pause Time 1500 s^−1 (s): NB = “No Binding.”. The conditions noted are these: for Platelet binding to surface-captured A1 domain variant: any shear rate; for Pause Time 1500 s^−1 (s): shear rate 1500 s^−1, mean ± std. dev., number of measurements in parentheses, NB = No Binding. The procedure:
The determination and analysis of platelet pause times and instantaneous translocation velocities over surface captured A1 and RCAM A1 was performed as previously described (Tischer:2013). Here, the inventor used the Cellix Mims Evo syringe pump controlled by VenaFluxAssay (www.cellixltd.com). Vena8™ CGS biochips were custom designed with 800 μm width by 80 μm height microchannels bonded to glass slides with a Cu^2+ chelated PEG surface serviced by Microsurfaces Inc. (www.proteinslides.com/histag.html) to which the A1 and RCAM A1 in TBS were captured by the 6×His-Tag at a total concentration of 5 μM. Citrated whole blood was obtained from the informed consent of healthy volunteer donors with approval from the Mayo Clinic Institutional Review Board and 100 μL was perfused over the surface captured A1 domains at 700 s^−1. The shear was increased or decreased in a stepwise manner to measure the dynamics of platelet adhesion at high and low shear. After allowing the flow chamber to equilibrate for 50 s at each shear rate, 1 min movies were recorded at 24 frames per second in phase contrast at 200× magnification with 2×2 pixel binning on a Zeiss AxioCam Mrm camera (6.45 μm/px) attached to a Zeiss Axio Observer.D1 inverted microscope. Tracking analysis was performed using MediaCybernetics ImagePro® Premier (www.mediacy.com/index.aspx?page=IP\_Premier) The distance travelled in the direction of flow was calculated from the coordinate data for each platelet as a function of time using √{square root over ((xt−x0)^2)}, where x0 is the coordinates of a platelet on the first frame of the movie and xt is the coordinate on subsequent frames of the movie. These trajectories were differentiated into instantaneous velocities using a Savitzky-Golay algorithm (Savitzky:1964) with a five data point window size and a second order polynomial implemented into a Mathematica (www.wolfram.com/mathematica) notebook written in our lab. Trajectories were retained for statistical analysis if the platelet was present for ≧1 s and travelled a total distance greater than 1 Distance travelled in pixels (px) was converted to (μm) using 6.45 μm/px*2/200=0.0645 μm/px. Pause times were determined by the amount of time (sec) a platelets velocity was 0±4 px/s≅0±0.23 μm/s, within the noise. Data are reported as mean velocities and pause times attained by individual platelets averaged over all platelets analyzed. Integral analysis of the cumulative pause time histogram gives the survival fraction, equation (24).
The rheological interaction of platelets with A1 domain variants harboring type 2M and type 2B mutations was studied using recently developed flow-chamber methods (19). The A1 domains ([…]) were immobilized on Vena8™ biochips (Cellix, Dublin, Ireland) coated with a Cu^2+-chelated poly-ethylene-glycol surface serviced by MicroSurfaces, Inc. (Englewood, N.J.) via the 6×His-Tag, enabling the preservation of the structural properties of the domain in solution and its concomitant effects on platelet adhesion under rheological shear flow. One-hundred microliters of citrated whole blood, obtained from the informed consent of normal healthy volunteer donors with approval from the Mayo Clinic Institutional Review Board (Rochester, Minn.), was perfused at a shear rate of 800 s^−1 followed by Tris-buffered saline. Platelets translocating on the surface-captured domains were filmed at 24 frames/s for 1 min at logarithmic intervals of the shear rate. Coordinates obtained from tracking analysis of the resulting movies were processed using the inventor recently developed statistical analytics for the quantification of cellular adhesion dynamics across immobilized receptors under rheological shear flow (supra). Biochips lacking the surface-captured A1 domain were completely inert to platelets.

The nature of data set [2]: Conformational and thermodynamic classification of A1 domain variants (urea and thermal denaturation, CD, FL, ANS). The format is physicochemical. The conditions noted are these: for Thermodynamic stability: urea and thermal denaturation. On the procedure:
Circular dichroism measurements were performed on a Model No. 420C circular-dichroism spectrometer (Aviv Biomedical, Inc., Lakewood Township, N.J.). All fluorescence (FL) measurements were performed on a Fluorolog3 spectrofluorometer (HORIBA Jobin-Yvon, Edison, N.J.) equipped with a Model No. LF1-3751 temperature controller (Wavelength Electronics Inc., Bozeman, Mont.). Near- and far-ultraviolet (UV) circular dichroism (CD), intrinsic protein FL, and ANS (8-anilino naphthalene sulfonic acid) […] spectra were determined as described in Tischer et al. (19). Urea denaturation (monitored by far-UV CD) and thermal denaturation (monitored by far-UV CD, intrinsic protein FL, and ANS FL) were performed and analyzed as previously described (19,20). Acrylamide quenching of intrinsic tryptophan fluorescence was performed and analyzed as described in Tischer et al. (19). All spectra were collected at 20° C.
The effects of mutations on the thermodynamic stability of A1 (18) was determined and a framework that incorporated partial unfolding as a means for enhancing the binding affinity of A1 for GPIba was developed (17). Initially, urea-temperature phase diagram method were used for assessing the reversible thermodynamics of unfolding at various temperatures (18,21), and more recently thermal denaturations were used to assess kinetic irreversibility (20,22). The inventor employed these methods using a variety of spectroscopic observables that assess the conformation of these A1 domain variants as a function of temperature and urea.
The observables included the following: (1) Far-UV CD to assess secondary structure content; (2) Near-UV CD to assess tertiary structure content; (3) Intrinsic protein FL to assess solvent exposure of tyrosine and tryptophan residues; (4) Acrylamide quenching of tryptophan FL to assess local solvent exposure of the single tryptophan residue; and (5) Binding of the molten globule indicator-dye, ANS, to assess exposure of hydrophobic surface area.
In total, these studies have provided metrics that are able to classify the conformation of A1 into three types, based on biophysical spectroscopy, as follows:
The type 2B mutations R1306Q and I1309V and the type 2M mutation G1324S have previously been characterized in this conformational class (18). In addition, R1308L and I1372S also belong to this class.
The type 2M mutation A1437T and the type 2B mutation R1341Q belong to this class.
The type 2M mutations F1369I, E1359K, I1425F, S1285F, and R1374H, and the type 2B mutations H1268D, P1337L, V1316M, and V1314D, belong to this class.

With “E1359K: vWF A1 domain variant with type 2M vWD mutation E1359K”, in data set [1], the “Platelet adhesion function (gain or loss of function)” value is on record as “complete loss-of-function”, the “Platelet binding to surface-captured A1 domain variant” value (from here on “Platelet binding”) is “did not bind platelets at any shear rate” and the “Pause Time 1500 s^−1 (s)” value is on record as “NB (2)”. Further, the “Conformational class (in words)” value in data set [2] is listed as “significantly reduced tertiary structure content”.
Regarding “P1337L: vWF A1 domain variant with type 2B vWD mutation P1337L”, the “Platelet adhesion function (gain or loss of function)” value in data set [1] was “extreme type 2B gain-of-function”. Besides, the “Conformational class (in words)” value in data set [2] is listed as “significantly reduced tertiary structure content”.
As to “F1369I: vWF A1 domain variant with type 2M vWD mutation F1369I”, in data set [1], the “Platelet adhesion function (gain or loss of function)” value was “complete loss-of-function”, the “Platelet binding” value is on record as “did not bind platelets at any shear rate” and the “Pause Time 1500 s^−1 (s)” value is “NB (2)”. The “Conformational class (in words)” value in data set [2] is given as “significantly reduced tertiary structure content”.
Turning to “V1314D: vWF A1 domain variant with type 2B vWD mutation V1314D”, the “Conformational class (in words)” value in data set [2] is on record as “significantly reduced tertiary structure content”.
In the case of “I1372S: vWF A1 domain variant with type 2B vWD mutation I1372S”, in data set [2], the “A1 domain Conformation” value is listed as “N (N = “Native” (native structure with varying thermodynamic stability))” and the “Conformational class (in words)” value is on record as “global native fold”.
For “H1308L: vWF A1 domain variant with type 2B vWD mutation, printed H1308L in Table 4, R1308L elsewhere” the same measures were “N (N = “Native” (native structure with varying thermodynamic stability))” and “global native fold”.
With “R1374H: vWF A1 domain variant with type 2M vWD mutation R1374H”, in data set [1], the “Platelet binding” value is “did not bind platelets at any shear rate” and the “Pause Time 1500 s^−1 (s)” value was “NB (2)”. Further, the “Conformational class (in words)” value in data set [2] is on record as “significantly reduced tertiary structure content”.
As for “V1316M: vWF A1 domain variant with type 2B vWD mutation V1316M”, the “Conformational class (in words)” value in data set [2] was “significantly reduced tertiary structure content”.
For the substance “I1309V: vWF A1 domain variant with type 2B vWD mutation I1309V”, in data set [2], the “A1 domain Conformation” value is recorded as “N (N = “Native” (native structure with varying thermodynamic stability))” and the “Conformational class (in words)” value is on record as “global native fold”.
Turning to “R1306Q: vWF A1 domain variant with type 2B vWD mutation R1306Q”, in data set [2], the “A1 domain Conformation” value was “N (N = “Native” (native structure with varying thermodynamic stability))” and the “Conformational class (in words)” value is given as “global native fold”.
Regarding “A1437T: vWF A1 domain variant with type 2M vWD mutation A1437T”, the “Platelet adhesion function (gain or loss of function)” value in data set [1] is reported as “mild loss-of-function”. Also, in data set [2], the “Conformational class (in words)” value was “reduced secondary structure content” and the Thermodynamic stability result was “low stability”.
Regarding “G1324S: vWF A1 domain variant with type 2M vWD mutation G1324S”, the “Pause Time 1500 s^−1 (s)” value in data set [1] is on record as “NB (3)”. In addition, in data set [2], the “A1 domain Conformation” value is on record as “N (N = “Native” (native structure with varying thermodynamic stability))” and the “Conformational class (in words)” value is on record as “global native fold”.
As to “I1425F: vWF A1 domain variant with type 2M vWD mutation I1425F”, in data set [1], the “Platelet binding” value was “did not bind platelets at any shear rate” and the “Pause Time 1500 s^−1 (s)” value was “NB (2)”. Moreover, the “Conformational class (in words)” value in data set [2] was “significantly reduced tertiary structure content”.
For “S1285F: vWF A1 domain variant with type 2M vWD mutation S1285F” the same measures were “did not bind platelets at any shear rate”, “NB (2)” and “significantly reduced tertiary structure content”.
On to “R1341Q: vWF A1 domain variant with type 2B vWD mutation R1341Q”, for which, in data set [2], the “Conformational class (in words)” value is reported as “reduced secondary structure content” and the Thermodynamic stability entry was “low stability”.
With “H1268D: vWF A1 domain variant with type 2B vWD mutation H1268D”, the “Conformational class (in words)” value in data set [2] was “significantly reduced tertiary structure content”.
